Reference: patent US20040143095A1

Assays:
[1] = target: mouse CRF receptor type 2β (mouse) (UniProt Q60748); test: radioligand displacement ([125I-Tyr0,Glu1,Nle17]-sauvagine), CHO membranes
[2] = target: rat CRF receptor type 2α (rat) (UniProt P47866); test: as above
rat CRF receptor type 2α (rat), sequence (P47866 20-411): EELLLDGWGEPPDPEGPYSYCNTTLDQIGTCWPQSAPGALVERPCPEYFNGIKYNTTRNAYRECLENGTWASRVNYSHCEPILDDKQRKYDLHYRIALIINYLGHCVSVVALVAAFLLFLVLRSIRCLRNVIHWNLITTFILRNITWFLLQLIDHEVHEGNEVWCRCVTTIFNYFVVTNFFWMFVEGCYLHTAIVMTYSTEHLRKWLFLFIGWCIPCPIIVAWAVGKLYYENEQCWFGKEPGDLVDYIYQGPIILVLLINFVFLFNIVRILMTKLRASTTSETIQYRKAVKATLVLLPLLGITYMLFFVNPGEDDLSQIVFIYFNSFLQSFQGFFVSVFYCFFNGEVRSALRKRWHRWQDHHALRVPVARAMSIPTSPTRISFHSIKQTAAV

Substance | Ki [1] [nM] | Ki [2] [nM]
Urocortin (rat) (from UniProt P55090 81-120) (peptide) | 0.62 | 2.2
CRF (rat/human) (from UniProt P06850 154-194) (peptide) | 5.2 | 10.1
